The source of these data is the nanobody polyreactivity screen of Harvey et al. (2022).

The nature of this data set: yeast display, Sf9 membrane polyspecificity reagent, FACS + sequencing; frameworks hold sequencing errors. The procedure, abridged:
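Galactose-induced (36–48 hours) yeast carrying a synthetic nanobody display library were exposed to 10% biotinylated, detergent-solubilized Sf9 membrane reagent at 4 °C for 1 hour. FACS followed streptavidin microbead enrichment, using low and high (top ~1%) gates for expression (anti-HA) and reagent binding (streptavidin). Colony PCR, MiSeq 2 × 250 sequencing and CDR-length filtering followed. Labels for polyreactivity reflect the gate of origin.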
Regarding “QVQLVESGGGLVQAGGSLRLSCAASGRTFYSYAMGWYSQAPGKERELVATISSNADGTYYADSVKGRFTISRDNAKNTVYLQMNSLKPEDTAVYYCAATYRRSHRYNYWGQGTQVTVSS”, the “polyreactivity (PSR sort gate)” value was “high polyreactivity”.

In the case of “QVQLVESGGGLVQAGGSLRLSCAASGRTFYSYTMGWYRQAPGKEREFVAAISSSGSSTYYADSVKGRFTISRDNAKYTVYLQMNSLKPEDTAVYYCAATRYRYPGYFRYDYWGQGTQVTVSS”, the “polyreactivity (PSR sort gate)” value is listed as “high polyreactivity”.

Take “QVQLVESGGGLVQAGGSLRLSCAASGRTFYSYVMGWYRQAPGKEREFVADISQSGGRTFYSDSVKGRFTISRDNAKNTVYLQMNSLKPEDTAVYYCAAAKRGSYARGYYWGQGTQVTVSS”: the “polyreactivity (PSR sort gate)” value is on record as “low polyreactivity”.

In the case of “QVQLVESGGGLVQAGGSLRLSCAASGRTFYSYVMGWYRQAPGKEREFVADISQSGGRTYYADSVKGRFTISRDNAKNTVYLQMNSLKPEDTAVYYCAAAKRGSYARGYYWGQGTQVTVSS”, the “polyreactivity (PSR sort gate)” value is “low polyreactivity”.

Consider “QVQLVESGGGLVQAGGSLRLSCAASGRTFYSYVMGWYRQAPGKERELVAAIRSSGRTYYADSVKGRFTISRDNAKNTVYLQMNRLTPEDTAVYYCAAYAWVSGSLYDSWGQGTQVTVSS”, for which the “polyreactivity (PSR sort gate)” value was “high polyreactivity”.

Take “QVQLVESGGGLVQAGGSLRLSCAASGRTFYTNAMGWYRQAAGKERELVAVISRGGTTYYADSVKGRFTISRDNAKNTVYLQMNSLKPEDTAVYYCAKQRPSGDSSSQMGSWGQGTQVTVSS”: the “polyreactivity (PSR sort gate)” value is recorded as “low polyreactivity”.

Turning to “QVQLVESGGGLVQAGGSLRLSCAASGRTFYTNAMGWYRQAPGKERELVASISGSGGSTYYADSVKGRFTISRDNGKNTVYLQMNSLNPEDTAVYYCAADPAPTVEFGKYDYWGQGTQVTVSS”, the “polyreactivity (PSR sort gate)” value is listed as “low polyreactivity”.

For “QVQLVESGGGLVQAGGSLRLSCAASGRTFYTNTMGWYRQAPGKERELVAAISYSGSSTYYADSVKGRFTISRDNAKNTVYLQMNCLKPEDTAVYYCNAVRYYRYYYWGQGTQVTVSS”, the “polyreactivity (PSR sort gate)” value is “low polyreactivity”.

Consider “QVQLVESGGGLVQAGGSLRLSCAASGRTFYTYAMGWYRQAPGKERELVAAISISGSRTYYADSVKGRFTISRDNAKNTVYLQMNSLKPEDTAVYYCAADRSYWAYVFQYVSYGEDYWGQGTQVTVSS”, for which the “polyreactivity (PSR sort gate)” value was “high polyreactivity”.

Regarding “QVQLVESGGGLVQAGGSLRLSCAASGRTFYTYAMGWYRQAPGKERELVAAISSGGSTYYADSVKGRFTISRDNAKNTVYLQMNSLKPEDTAVYYCAARYSKRVWYGYWGQGTQVTVSS”, the “polyreactivity (PSR sort gate)” value was “high polyreactivity”.

With “QVQLVESGGGLVQAGGSLRLSCAASGRTFYTYAMGWYRQAPGKERELVASISRSGSGTFYADSVKGRFTISRDNAKNTVYLQMNSLKPEDTAVYYCNAVSAAKIPFQKYGYWGQGTQVTVSS”, the “polyreactivity (PSR sort gate)” value was “high polyreactivity”.

Take “QVQLVESGGGLVQAGGSLRLSCAASGRTFYVNALGWYRQAPGKERELVAGISFSDGSTYYADSVKGRFTISRDNAKNTVYLQMNSLKPEDTAVYYCATVGAFDIYYGYGYWGQGTQVTVSS”: the “polyreactivity (PSR sort gate)” value is given as “low polyreactivity”.

In the case of “QVQLVESGGGLVQAGGSLRLSCAASGRTFYVNAMGWYRQAPGKERELVAAISRSGRTNYADSVKGRFTISRDNAKNTVYLQMNSLKPEDTAVYYCAAALSNVRNVRSPYDYWGQGTQVTVSS”, the “polyreactivity (PSR sort gate)” value is given as “high polyreactivity”.

Turning to “QVQLVESGGGLVQAGGSLRLSCAASGRTFYVNAMGWYRQAPGKERELVARISSSGITYYADSVKGRFTISRDNAKNTVYLQMNSLKPEDTAVYYCAAEYRSYSTLNRKFWYSPEYDYWGQGTQVTVSS”, the “polyreactivity (PSR sort gate)” value is on record as “low polyreactivity”.

In the case of “QVQLVESGGGLVQAGGSLRLSCAASGRTFYVNAMGWYRQAPGKETELVAAISSGSSTDYADSVKGRFTISRDNAKNTVYLQMNSLKPEDTAVYYCAKRWRRRFVDVWSLYDYWGQGTQVTVSS”, the “polyreactivity (PSR sort gate)” value is reported as “low polyreactivity”.

Take “QVQLVESGGGLVQAGGSLRLSCAASGRTFYVNTMGWYRQAPGKERELVAAITSRGGRTHYADSVKGRFTISRDNAKNNVYLQMNSLKPEDTAVYYCAAKITAYWRYISDYGYWGQGTQVTVSS”: the “polyreactivity (PSR sort gate)” value was “high polyreactivity”.

As to “QVQLVESGGGLVQAGGSLRLSCAASGRTFYVNTMGWYRQATGKETELVARITRGGSTYYADSVKGRFTISRDNAKNTVYLQMNSLKPEDTAVYYCATDHFPVYSTHVIYEFDYWGQGTQVTVSS”, the “polyreactivity (PSR sort gate)” value is reported as “low polyreactivity”.

With “QVQLVESGGGLVQAGGSLRLSCAASGRTFYVYAMGWYRQAPGKERELVAAITRGGRTKYADSVKGRFTISRDNAKNTVYLQMNSLKPEDTAVYYCATVASPNRGGVSRYDYWGQGTQVTVSS”, the “polyreactivity (PSR sort gate)” value was “high polyreactivity”.

As for “QVQLVESGGGLVQAGGSLRLSCAASGRTFYWNAMGWSRQAPGKERELVASINCGGSTYYADSVKGRFTISRDNAKNTVYLQMNSLKPEGTAVYYCNAESYEFHRAWGDYDYWGQGTQVTVSS”, the “polyreactivity (PSR sort gate)” value is listed as “low polyreactivity”.

Take “QVQLVESGGGLVQAGGSLRLSCAASGRTFYWNAMGWYRQAPGKERELVAAIRWRGGNTYYADSVKGRFTISRDNAKNTVYLQMNSLKPEDTAVYYCAAAGGKSEMGYWGQGTQVTVSS”: the “polyreactivity (PSR sort gate)” value is reported as “high polyreactivity”.

For “QVQLVESGGGLVQAGGSLRLSCAASGRTFYWNAMGWYRQAPGKERELVAAISWRGGSTYYADSVKGRFTISRDNAKNTVYLQMNSLKPEDTAVYYCAAYHSREYDYWGQGTQVTVSS”, the “polyreactivity (PSR sort gate)” value was “high polyreactivity”.

For “QVQLVESGGGLVQAGGSLRLSCAASGRTFYWNTMGWYRQAPGKERELVAAINYSGGSTYYADSVKGRFTISRDNAKNTVYLQMNSLKPEDTAVYYCAAYFHGYKSQHRARSEYNYWGQGTQVTVSS”, the “polyreactivity (PSR sort gate)” value was “high polyreactivity”.

Regarding “QVQLVESGGGLVQAGGSLRLSCAASGRTFYWYAMGWYRQAPGKERELVAAIRKTDTSTYYADSVKGRFTISRDNAKNTVYLQMNSLKPEDTAVYYCAARSTYSSGKYGYKYDYWGQGTQVTVSS”, the “polyreactivity (PSR sort gate)” value is given as “high polyreactivity”.

Turning to “QVQLVESGGGLVQAGGSLRLSCAASGRTFYYAMGWYRQAPGTERELVATITSGGSTNYADSVKGRFTISRDNAKNTVYLQMNSLKPEDTAVYYCNRDIPPGNYYKALYYYWGQGTQVTVSS”, the “polyreactivity (PSR sort gate)” value is “low polyreactivity”.

For the sequence “QVQLVESGGGLVQAGGSLRLSCAASGRTFYYNAMGGYRPAPGKERELVATITWTGDSTYADSVKGRFTISRDNAKNTVYLQMISLKPEDTAVYYCAAGKPVILTGDYDYWGQGTQVTVSS”, the “polyreactivity (PSR sort gate)” value is reported as “low polyreactivity”.

For “QVQLVESGGGLVQAGGSLRLSCAASGRTFYYNAMGWYRQAPGKEREFVAAIRYSGGITYYADSVKGRFTISRDNAKNTVYLQMNSQKPEDTAVYYCAADYVSRRYYYWGQGTQVTVSS”, the “polyreactivity (PSR sort gate)” value is on record as “high polyreactivity”.

Turning to “QVQLVESGGGLVQAGGSLRLSCAASGRTFYYNAMGWYRQAPGKEREFVAGISYGGTTTYYADSVKGRFTISRDNAKNTVYLQMNSLKPEDTAVYYCAAGYTWRQSWYPFDYWGQGTQVTVSS”, the “polyreactivity (PSR sort gate)” value is recorded as “high polyreactivity”.

As to “QVQLVESGGGLVQAGGSLRLSCAASGRTFYYNAMGWYRQAPGKERELVAAITSRGTTYYADSVKGRFTISRDNAKNTVYLQMNSLKPEDTAVYYCAALALYRAQGNLDYWGQGTQVTVSS”, the “polyreactivity (PSR sort gate)” value is on record as “high polyreactivity”.

Regarding “QVQLVESGGGLVQAGGSLRLSCAASGRTFYYYAMGWNRQAPGKEREFVASITWRGGRTYYADSVKGRFTISRDYAKNTVYLQMNSLKPEDTAVYYCAADGSYAIGGYGYWGQGTQVTVSS”, the “polyreactivity (PSR sort gate)” value is listed as “high polyreactivity”.

Regarding “QVQLVESGGGLVQAGGSLRLSCAASGRTFYYYAMGWYRQAPGKEREFVAAIRFSGGNTYYADSVKGRFTISRDNAKNTVYLQMNSLKPVDTAVYYCAARRLLYKYWTGGPYDYWGQGTQVTVSS”, the “polyreactivity (PSR sort gate)” value is “high polyreactivity”.

Take “QVQLVESGGGLVQAGGSLRLSCAASGRTFYYYAMGWYRQAPGKERELVAAIRWRGGRTYADSVKGRFTISRDNAKNTVYLQMNSLKQEDTAVYYCNAGFHYPSTYWIYYSGGNYWGQGTQVTVSS”: the “polyreactivity (PSR sort gate)” value is on record as “high polyreactivity”.

Regarding “QVQLVESGGGLVQAGGSLRLSCAASGRTFYYYAMGWYRQAPGKERELVAAISSRGGRTYYADSVKGRFTISRDNAKNTVYLQMNSLKPEDTAVYYCAKVVAYYDRDSWGQGTQVTVSS”, the “polyreactivity (PSR sort gate)” value is on record as “high polyreactivity”.

In the case of “QVQLVESGGGLVQAGGSLRLSCAASGRTFYYYAMGWYRQAPGKERELVAAISWGGGRTYYADSVKGRFTISRDNAKNTVYLQMNSLKPEDTAVYYCNAVRTTPSGSLPLAYDYWGQGTQVTVSS”, the “polyreactivity (PSR sort gate)” value is reported as “low polyreactivity”.

With “QVQLVESGGGLVQAGGSLRLSCAASGRTFYYYAMGWYRQAPGKERELVAAISWRGGSTYYADSVKGRFTISRDNAKNTVYLQMNSLKPEDTAVYYCAVYTTYSRYRGYDYWGQGTQVTVSS”, the “polyreactivity (PSR sort gate)” value was “high polyreactivity”.

In the case of “QVQLVESGGGLVQAGGSLRLSCAASGRTFYYYAMGWYRQAPGKERELVAGISWSAGSTYYADSVKGRFTISRDNAKNTVYLQMNSLKPEDTAVYYCAARYWQSYRSQVTHSSTLDYWGQGTQVTVSS”, the “polyreactivity (PSR sort gate)” value is on record as “low polyreactivity”.

In the case of “QVQLVESGGGLVQAGGSLRLSCAASGRTFYYYAMGWYRQAPGKERELVARIRSGGSTNYADSVKGRFTISRDNAKNTVYLQMNSLKPEDTAVYYCNSMGAKGYVKGFDYWGQGTQVTVSS”, the “polyreactivity (PSR sort gate)” value is reported as “low polyreactivity”.

Take “QVQLVESGGGLVQAGGSLRLSCAASGRTFYYYAMGWYRQAPGKERELVATITKSSGSTSYADSVKGRFTISRDNAKNTVYLQMNSLKPEDSAVYSCARRIKWGKFKGWNYPAHNYWGQGTQVTVSS”: the “polyreactivity (PSR sort gate)” value is “high polyreactivity”.

In the case of “QVQLVESGGGLVQAGGSLRLSCAASGRTFYYYARGWYRQAPGKEREVVASITSGDGTYYADSVQGRFTISRDYAQNTVYLQMNSLKPEATAVYYCAADIFYKFSYYPWYPYRDYYYWGQGTQVTVSS”, the “polyreactivity (PSR sort gate)” value is recorded as “low polyreactivity”.

For “QVQLVESGGGLVQAGGSLRLSCAASGRTFYYYTMGWYRPAPGKERELVAAISSTGNTYYADSVKGRFTISRDNAKNTVYLQMNSLKPEDTAVYYCAALRYVNLLAQAYEYWGQGTQVTVSS”, the “polyreactivity (PSR sort gate)” value is on record as “high polyreactivity”.

As to “QVQLVESGGGLVQAGGSLRLSCAASGRTFYYYTMGWYRQAPGKEREFVAAIRRSGGNTRYADSVKGRFTISRDNAKNTVYLQMNSLKPEDTAVYYCNAGYGYYYGRILQERDYWGQGTQVTVSS”, the “polyreactivity (PSR sort gate)” value is “high polyreactivity”.
